Measured values reported in patent publication US10077295B2, “Glycoproteins having lipid mobilizing properties and therapeutic uses thereof” (Aston University, priority 2010, dated 2018).

Legend:
[1] = tested on: epididymal adipocytes of male Wistar rats; assay: Uptake of 2-deoxy-D-glucose into epididymal adipocytes of ZAG-treated rats; type: in vivo, rat; settings: rats treated for 10 days
Procedure: (§1) Glucose Uptake into Adipocytyes. Isolated adipocytes (5×10^4) were washed twice in 1 ml Krebs-Ringer bicarbonate buffer, pH 7.2 (KRBS) and further incubated for 10 min at room temperature in 0.5 ml KRBS containing 18.5 MBq 2-[1-^14C] deoxy-D-glucose and non-radioactive 2-deoxy-D-glucose to a final concentration of 0.1 mM. Uptake was terminated by the addition of 1 ml ice-cold glucose-free KRBS, and the cells were washed three times with 1 ml KRBS, lysed by addition of 0.5 ml 1M NaOH and left for at least 1 h at room temperature before the radioactivity was determined by liquid scintillation counting.

[2] = molecular target: β3-AR (Homo sapiens, UniProt P13945); assay: Cyclic AMP production in CHO-K1 cells transfected with β3-AR; type: cell-based; design: host or cells: CHO-K1; settings: CHO-K1 β3-AR
Procedure: (§2) Binding Studies and Cyclic AMP Determination. CHO-K1 cells transfected with the human β1- and β2-AR obtained from University of Nottingham, UK, while CHOK1 cells transfected with the β3-AR were obtained from Astra Zeneca, Macclesfield, Cheshire, UK. Gene expression was under the control of hygromycin, together with a β-gal reporter construct, selected for resistance to G418. They were maintained in DMEM supplemented with 2 mM glutamine, hygromycin B ([…]), G418 ([…]), and 10% FCS, under an atmosphere of 10% CO2 in air. To determine the effect of agonists on cyclic AMP production, cells were grown in 24-well plates containing 1 ml of nutrient medium.

[3] = tested on: adipocytes and gastrocnemius muscle of ob/ob mice; assay: Glucose uptake into adipocytes and gastrocnemius muscle of ZAG-treated ob/ob mice; type: in vivo, mouse
Procedure: as §1
Glucose Uptake into Gastrocnemius Muscle—Gastrocnemius muscles were incubated in Krebs-Henseleit bicarbonate buffer for 45 min at 37° C. and then incubated for a further 10 min in 5 ml Krebs-Henseleit buffer containing 185M Bq 2-[1-^14C] deoxy-D-glucose and non-radioactive 2-deoxy-D-glucose to a final concentration of 0.1 mM. The muscles were then removed and washed in 0.9% NaCl for 5 min followed by dissolution in 0.5 ml 1M NaOH and the radioactivity was determined by liquid scintillation counting.

[4] = molecular target: T1, human β1-AR (Homo sapiens, UniProt P08588); assay: Cyclic AMP production in CHO-K1 cells transfected with β1-AR; type: cell-based; settings: any concentration
T1 construct: host or cells: CHO-K1
Procedure: as §2

[5] = tested on: murine epididymal adipocytes; assay: Lipolytic assay (glycerol release) in murine adipocytes; type: cell-based, mouse
Procedure: Cell Culture and Purification of ZAG. Single-cell suspensions of white adipocytes were prepared from minced adipose deposits by incubation at 37° C. for 2 h in Krebs-Ringer biocarbonate buffer containing 1.5 mgml^−1 collagenase, and 4% bovine serum albumin under an atmosphere of 95% oxygen: 5% CO2 as previously described. For time-course studies adipocytes were suspended in DMEM containing 10% fetal calf serum at a concentration of 10^5 cells ml^−1 and maintained under an atmosphere of 10% CO2 in air at 37° C. Human 293 cells transfected with a plasmid containing human ZAG were seeded at a concentration of 10^5 cells ml^−1 in FreeStyle medium and maintained under an atmosphere of 5% CO2 in air at 37° C. Maximal protein levels (16 μgml^−1) were obtained after 14 days of culture. The media (200 ml) was then centrifuged at 700 g for 15 min to remove cells and concentrated into a volume of 1 ml of sterile PBS using an Amicon Ultra-15 centrifugal filter with a 10 kDa cut-off After measurement of the protein concentration of the sample (about 2 mg) it was added to 2 g DEAE cellulose suspended in 20 ml of 10 mM Tris, pH8.8 and stirred at 4° C. for 2 h. ZAG being negatively charged binds to the DEAE cellulose, which was sedimented by centrifugation (1500 g for 15 min), and eluted by stirring with 20 ml 10 mM Tris, pH8.8 containing 0.3M NaCl for 30 min at 4° C. The supernatant was washed and concentrated to a volume of 1 ml in sterile PBS using the Amicon centrifugal filter.
Lipolytic assay. Samples to be assayed were incubated with 10^5 to 2×10^5 adipocytes for 2 h in 1 ml Krebs-Ringer bicarbonate buffer, pH 7.2. The concentration of glycerol released was determined enzymatically by the method of Wieland (Wieland, O. Glycerol UV method. In Methods of Enzymatic Analysis (ed. Bergmeyer, H.U.) (Academic Press, London, UK, pp 1404-1409, 1974)). Control samples containing adipocytes alone were analysed to determine the spontaneous glycerol release. Activity was expressed as μmol glycerol released/10^5 adipocytes/2 h.

[6] = tested on: ob/ob mice; assay: Interval / long-term administration of ZAG in ob/ob mice (pilot study); type: in vivo, mouse
Procedure: While not wanting to be limited by theory, it may be that the subjects are receiving too much ZAG or that there is receptor desensitization as is seen with TNF. A pilot study was performed with 2 mice in each group to determine optimal scheduling of ZAG delivery.

T1 sequence (P08588 whole entry): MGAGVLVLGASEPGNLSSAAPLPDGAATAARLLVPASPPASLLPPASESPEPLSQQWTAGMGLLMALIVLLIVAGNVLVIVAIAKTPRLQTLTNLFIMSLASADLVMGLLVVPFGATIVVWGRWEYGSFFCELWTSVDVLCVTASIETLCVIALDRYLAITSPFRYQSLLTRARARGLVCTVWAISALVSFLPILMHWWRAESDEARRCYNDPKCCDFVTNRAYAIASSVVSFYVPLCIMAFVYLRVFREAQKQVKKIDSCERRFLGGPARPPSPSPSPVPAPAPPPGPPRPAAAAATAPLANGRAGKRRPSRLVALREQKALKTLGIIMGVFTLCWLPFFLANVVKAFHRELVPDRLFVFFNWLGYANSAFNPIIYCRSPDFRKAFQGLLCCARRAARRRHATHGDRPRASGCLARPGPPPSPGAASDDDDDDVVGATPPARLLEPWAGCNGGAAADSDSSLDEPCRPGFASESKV
β3-AR, sequence (P13945 whole entry): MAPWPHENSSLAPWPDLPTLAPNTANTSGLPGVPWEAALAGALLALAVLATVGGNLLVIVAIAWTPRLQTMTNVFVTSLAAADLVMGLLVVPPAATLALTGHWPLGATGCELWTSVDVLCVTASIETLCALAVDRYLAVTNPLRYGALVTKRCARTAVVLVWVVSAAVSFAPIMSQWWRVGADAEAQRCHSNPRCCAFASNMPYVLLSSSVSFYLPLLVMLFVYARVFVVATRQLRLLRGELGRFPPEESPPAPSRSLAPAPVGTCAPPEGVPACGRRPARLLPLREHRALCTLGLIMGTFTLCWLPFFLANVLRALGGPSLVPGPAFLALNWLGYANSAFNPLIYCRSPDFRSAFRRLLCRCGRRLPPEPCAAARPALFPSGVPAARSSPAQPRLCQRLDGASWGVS

B1: ZAG: recombinant full length human zinc-α2-glycoprotein (SEQ ID NO: 1) secreted by transfected HEK293F cells; lipid mobilizing factor (protein, listed as Homo sapiens)
chain: QENQDGRYSLTYIYTGLSKHVEDVPAFQALGSLNDLQFFRYNSKDRKSQPMGLWRQVEGMEDWKEDSQLQKAREDMETLKDIVEYYNDSNGSHVLQGRFGCEIENNRSSGAFWKYYYDGKDYIEFNKEIPAWVPFDPAAQITKQKWEAEPVYVQRAKAYLEEECPATLRKYLKYSKNILDRQDPPSVVVTSHQAPGEKKKLKCLAYDFYPGKIDVHWTRAGQVQEPELRGDVLHNGNGTYQSWVVVAVPPQDTAPYSCHVQHSSLAQPLVVPWEAS
[1]
  uptake of 2-deoxyglucose into epididymal adipocytes: significant increase
[2]
  lowest concentration to stimulate cyclic AMP production: 350 nM
[3]; absence and presence of insulin (100 nM)
  glucose uptake into gastrocnemius muscle: significantly enhanced
[3]; absence of insulin, ob/ob mice treated 5 days
  glucose uptake into epididymal, visceral and subcutaneous adipocytes: increased glucose uptake
[4]
  cyclic AMP production: no increase in cyclic AMP
[5]; compared with epididymal adipocytes
  lipolytic effect in adipocytes from subcutaneous and visceral deposits: considerably reduced
[5]; mouse adipocytes
  lipolysis in epididymal adipocytes: stimulated lipolysis
[5]; murine epididymal adipocytes
  effect of a single freezing and thawing cycle on lipolytic activity: destroyed
[5]; on a molar basis
  potency at inducing lipolysis compared with isoprenaline: more potent at inducing lipolysis than isoprenaline on a molar basis
[6]; from a 90 g mouse, in about 3 weeks
  weight loss: 8 to 10 g
[6]; ob/ob mice
  outcome of long-term daily administration: cessation of weight loss
